Test results reported in patent publication US20250019454A1 (BIOCYTOGEN PHARMACEUTICALS BEIJING, published 2025).
Where a chain is given by its changes, count along the chain named.

T1: ΔCRD1-TNFR2 protein (with CRD1 deletion), on CHO-S cells (human, UniProt P20333 23-461)
T1 construct: also called CHO-SΔCRD1-TNFR2
T1 sequence: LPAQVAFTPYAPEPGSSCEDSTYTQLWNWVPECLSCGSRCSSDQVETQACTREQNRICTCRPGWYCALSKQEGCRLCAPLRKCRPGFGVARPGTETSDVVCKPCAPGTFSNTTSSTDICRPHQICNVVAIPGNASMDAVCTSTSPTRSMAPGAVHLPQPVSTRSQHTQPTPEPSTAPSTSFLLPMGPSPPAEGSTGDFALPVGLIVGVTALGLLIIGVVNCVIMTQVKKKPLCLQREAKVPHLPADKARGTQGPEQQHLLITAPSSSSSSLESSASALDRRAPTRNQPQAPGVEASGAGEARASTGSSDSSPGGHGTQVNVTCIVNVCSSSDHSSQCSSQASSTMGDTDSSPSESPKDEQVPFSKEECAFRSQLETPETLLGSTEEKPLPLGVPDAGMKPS

T2: ΔCRD2-TNFR2 protein (with CRD2 deletion), on CHO-S cells (human, UniProt P20333 23-461)
T2 construct: also called CHO-SΔCRD2-TNFR2
T2 sequence: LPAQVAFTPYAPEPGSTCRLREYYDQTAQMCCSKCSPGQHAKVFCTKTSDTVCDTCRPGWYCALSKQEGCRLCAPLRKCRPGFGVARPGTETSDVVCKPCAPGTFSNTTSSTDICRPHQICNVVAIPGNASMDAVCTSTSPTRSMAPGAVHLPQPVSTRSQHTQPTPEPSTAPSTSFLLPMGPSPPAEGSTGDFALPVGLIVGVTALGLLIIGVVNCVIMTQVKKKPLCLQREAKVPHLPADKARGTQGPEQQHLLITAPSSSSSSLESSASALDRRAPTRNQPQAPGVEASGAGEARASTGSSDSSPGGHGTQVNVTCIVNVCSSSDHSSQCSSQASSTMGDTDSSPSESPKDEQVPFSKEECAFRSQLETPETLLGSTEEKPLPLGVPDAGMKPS

T3: His-tagged human TNFR2 (Human TNFR2/CD120b/TNFRSF1B Protein, His Tag, Acrobiosystems Cat #: TN2-5227) (human, UniProt P20333 23-257)
T3 construct: Bought protein; also called hTNFR2-His; Recombinant human TNFR2 proteins with His-tag; not shown: His tag
T3 sequence: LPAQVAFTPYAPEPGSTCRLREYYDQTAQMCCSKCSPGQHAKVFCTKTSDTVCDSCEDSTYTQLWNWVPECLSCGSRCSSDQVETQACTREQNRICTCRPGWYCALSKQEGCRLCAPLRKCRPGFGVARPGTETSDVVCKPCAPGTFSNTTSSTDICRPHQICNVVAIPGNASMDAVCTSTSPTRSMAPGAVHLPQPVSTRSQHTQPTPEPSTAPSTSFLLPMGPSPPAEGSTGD

T4: human TNFR2 (expressed on cells) (human, UniProt P20333 23-461)
T4 construct: also called hTNFR2; human TNF Receptor 2
T4 sequence: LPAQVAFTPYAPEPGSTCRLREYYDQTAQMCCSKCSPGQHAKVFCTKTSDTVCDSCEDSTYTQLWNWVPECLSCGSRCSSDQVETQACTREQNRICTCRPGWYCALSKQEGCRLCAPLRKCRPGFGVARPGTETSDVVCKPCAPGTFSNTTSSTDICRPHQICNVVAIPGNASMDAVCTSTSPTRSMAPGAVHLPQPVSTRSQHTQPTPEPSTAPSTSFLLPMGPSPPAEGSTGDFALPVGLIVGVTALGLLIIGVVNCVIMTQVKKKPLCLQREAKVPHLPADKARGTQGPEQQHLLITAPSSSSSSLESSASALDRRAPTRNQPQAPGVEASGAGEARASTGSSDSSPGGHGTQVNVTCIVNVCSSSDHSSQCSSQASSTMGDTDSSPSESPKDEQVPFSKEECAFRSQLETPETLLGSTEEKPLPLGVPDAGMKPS

B1: BC-1F10-IgG1 (antibody, V domains shown)
VH: QVQLQQWGAGLLKPSETLSLICAVYDGSFSGDYWSWIRQPPGKGLEWIGEINHSGSTNYNPSLKSRVTISVDTSKNQFSLKLSSVTAADTAVYYCARGHWNYDYYYGMDVWGQGTTVTVSS
VL: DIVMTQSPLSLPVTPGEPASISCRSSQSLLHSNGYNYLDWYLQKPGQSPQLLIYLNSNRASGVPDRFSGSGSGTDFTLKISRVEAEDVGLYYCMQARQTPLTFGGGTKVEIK
notes: Human VH/VL joined to the human IgG1 subtype
B2: BC-1C3-IgG1 (antibody, V domains shown)
VH: QVQLVESGGGVVHPGKSLRLSCAASGFTFNIYGMHWVRQAPGKGLEWVALISYDGNDKYFADSVKGRFTISRDNSKNTLYLQMNSLRAEDTAVYYCAKAVDTAVVTFFDYWGQGTLVTVSS
VL: EIVMTQSPVTLSVSPGERATLSCRASQSVSSNLAWYQQKPGQAPRLLIYSASTRATGIPARFSGSGSGTEFTLTISSLQSEDLAVYYCQQYSNWPFTFGPGTKVDIK
notes: as for B1
B3: BC-1A8-IgG1 (antibody, V domains shown)
VH: QVQLQQSGPGLVKPSQTLSLTCAISGDSVSSNSAAWNWIRQSPSRGLEWLGRTYYRSKWYNDYALSVKSRITINPETSKNQFSLQLNSVTPEDTAVYYCAREDGVGGTKDYFDYWGQGTLVTVSS
VL: DIQMTQSPSSLSASVGDRVTITCQASQDIDNYLNWYQQKPGKAPKLLIYDVSNLEIGVPSRFSGSGSGTDFTFTISSLQPEDIATYYCQQYDNLPLTFGQGTRLEIK
notes: Fully human VH/VL joined to the human IgG1 subtype, kappa light chain (RenMab mice)
B4: BC-1F4-IgG1 (antibody, V domains shown)
VH: B3 VH with N32D, A34S, A64T, L65V, E76D
VL: B3 VL with D30S, V51A, I56T, S76N, I83F, Y87F, L96I
notes: as for B1
B5: BC-1B6-IgG1 (antibody, V domains shown)
VH: QVQLVESGGGVVQPGRSLRLSCAASGFTFSNFGMHWVRQAPGKGLEWVAVIWYEGSDKYYADSVKGRFTISRDNSKNTLYLQMNSLRAEDTAVYYCARDSSWGFLLYGMDVWGQGTTVTVSS
VL: DVVMTQSPLSLPVTLGQPASISCRSSRSLEYSDGNTYLNWFQQRPGQSPRRLIYKVSNRDSGVPDRFSGSGSGTAFTLKISGVEAEDVGVYYCMQGTHWPPTFGGGTKVEIK
notes: as for B1

The binders below were run against T1, ΔCRD1-TNFR2 protein (with CRD1 …) (assay: FACS on CHO-S cells with ΔCRD1-TNFR2, AF647 anti-human IgG Fc secondary).
Excerpt: (§1) TNFR2 has four cysteine rich domains (CRD). In another experiment, FACS was used to detect the binding of anti-hTNFR2 antibodies to TNFR2 proteins with different structural domains. Secondary antibody (Alexa Fluor® 647 AffiniPure F(ab′) 2 Fragment Goat Anti-Human IgG, Fcγ fragment specific, Jackson ImmunoResearch Laboratories, Inc., Cat #: 151524) was used. The fluorescence-labeled secondary antibody can attach to the Fc region of the anti-hTNFR2 antibodies so that the anti-hTNFR2 antibodies that are bound to the ΔCRD cells can be detected by FACS. Specifically, ΔCRD1-TNFR2 protein (with CRD1 deleteion), ΔCRD2-TNFR2 protein (with CRD2 deleteion), ΔCRD3-TNFR2 protein (with CRD3 deleteion) or ΔCRD4-TNFR2 protein (with CRD4 deleteion) were expressed in CHO-S cells respectively, and then the binding between the cells and different anti-hTNFR2 antibodies was detected.

positive rate of binding (% of cells) [%]	Binder
55.3	B1
72.6	B2
64.6	B3
53.1	B4

The binders below were run against T2, ΔCRD2-TNFR2 protein (with CRD2 …) (assay: FACS on CHO-S cells with ΔCRD2-TNFR2, AF647 anti-human IgG Fc secondary).
Excerpt: as §1

positive rate of binding (% of cells) [%]	Binder
65.7	B1
80.3	B2
71.2	B3
59.1	B4

What follows are binders tested against T3, His-tagged human TNFR2 (Human …) (assay: SPR Biacore 8K, antibody captured on Protein A chip, hTNFR2-His as analyte, 1:1 model).
Protocol: The binding affinity of the anti-TNFR2 antibodies to human TNFR2 and TNFR1 (Tumor necrosis factor receptor 1) were measured using surface plasmon resonance (SPR) using Biacore (Biacore, INC, Piscataway NJ) 8K biosensor equipped with pre-immobilized Protein A sensor chips.
Purified anti-TNFR2 antibodies were diluted to 1 μg/mL and then injected into the Biacore 8K biosensor at 10 μL/min for about 50 seconds to achieve a desired protein density (e.g., about 50 response units (RU)). […] Dissociation was monitored for 600 seconds. The chip was regenerated after the last injection of each titration with Glycine (pH 2.0, 30 μL/min for 30 seconds).

Kd [nM]	koff [s⁻¹]	kon [M⁻¹ s⁻¹]	Binder
5.1	0.000467	91500	B1
3.89	0.00644	1.66e+06	B5
9.5	0.00115	121000	B2
1.36	0.00126	924000	B3
2.21	0.00159	718000	B4

The binders below were run against T4, human TNFR2 (expressed on cells) (assay: flow cytometry competition, CHO cells with human TNFR2, antibody 2.5 µg/mL, Biotin-hTNFα 0.5 µg/mL).
Protocol: (§2) 30 μl of Biotin-hTNFα (Acro Biosystems, Cat #: TNA-H82E1) was added to each well (with a final concentration of 0.5 μg/mL in each well). The cells with Biotin-hTNFα and the antibodies were incubated at 4° C. for 30 minutes.
(§3) The signals for AF647 and PE were determined by flow cytometry (Thermo Attune NX).

percentage of tested cells that had Streptavidin signals [%]	Binder
54.5	B1
87.2	B5
81.5	B2
29.9	B3
59.5	B4

What follows are binders tested against T4, human TNFR2 (expressed on cells) (assay: flow cytometry competition, CHO cells with human TNFR2, antibody 0.039 µg/mL, Biotin-hTNFα 0.5 µg/mL).
Protocol: as §2, §3

percentage of tested cells that had Streptavidin signals [%]	Binder
59	B1
78.9	B5
77	B2
62.8	B3
84.6	B4

The binders below were run against T4, human TNFR2 (expressed on cells) (assay: flow cytometry competition, CHO cells with human TNFR2, antibody 0.1565 µg/mL, Biotin-hTNFα 0.5 µg/mL).
Protocol: as §2, §3

percentage of tested cells that had Streptavidin signals [%]	Binder
55.2	B1
82.7	B5
74.3	B2
67.4	B3
76.2	B4
